Values belong to the molecule of their own block, whether it stands above or below them.
Experiments:
[1] = target: T1, G9a and GLP (Homo sapiens, UniProt Q96KQ7+Q9H9B1); assay: Triple SILAC pull-down after UNC0638 treatment of 293T cells, DMSO/UNC0638 ratio of protein captured by 3×MBT; format: cell-based; design: endogenous in cells; host or cells: HEK 293T; details: for Relative to UNC0638 UNC Heavy / Relative to UNC0638 UNC Light: SILAC ratio DMSO/UNC0638 of protein pulled down with 3xMBT; for Relative to UNC0638 UNC Heavy: UNC0638 in heavy SILAC media; for Relative to UNC0638 UNC Light: UNC0638 in light SILAC media; for Relative to UNC0638 Average: average of UNC Light and UNC Heavy experiments;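 for all read-outs here: mass spectrometry (Q-Exactive) SILAC quantitation, DMSO/UNC0638 ratio computed after subtracting 3×MBTD355N mutant pull-down background, only proteins with at least twofold 3×MBT over mutant signal considered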
T1 sequence (Q96KQ7 2-1210 limits assumed): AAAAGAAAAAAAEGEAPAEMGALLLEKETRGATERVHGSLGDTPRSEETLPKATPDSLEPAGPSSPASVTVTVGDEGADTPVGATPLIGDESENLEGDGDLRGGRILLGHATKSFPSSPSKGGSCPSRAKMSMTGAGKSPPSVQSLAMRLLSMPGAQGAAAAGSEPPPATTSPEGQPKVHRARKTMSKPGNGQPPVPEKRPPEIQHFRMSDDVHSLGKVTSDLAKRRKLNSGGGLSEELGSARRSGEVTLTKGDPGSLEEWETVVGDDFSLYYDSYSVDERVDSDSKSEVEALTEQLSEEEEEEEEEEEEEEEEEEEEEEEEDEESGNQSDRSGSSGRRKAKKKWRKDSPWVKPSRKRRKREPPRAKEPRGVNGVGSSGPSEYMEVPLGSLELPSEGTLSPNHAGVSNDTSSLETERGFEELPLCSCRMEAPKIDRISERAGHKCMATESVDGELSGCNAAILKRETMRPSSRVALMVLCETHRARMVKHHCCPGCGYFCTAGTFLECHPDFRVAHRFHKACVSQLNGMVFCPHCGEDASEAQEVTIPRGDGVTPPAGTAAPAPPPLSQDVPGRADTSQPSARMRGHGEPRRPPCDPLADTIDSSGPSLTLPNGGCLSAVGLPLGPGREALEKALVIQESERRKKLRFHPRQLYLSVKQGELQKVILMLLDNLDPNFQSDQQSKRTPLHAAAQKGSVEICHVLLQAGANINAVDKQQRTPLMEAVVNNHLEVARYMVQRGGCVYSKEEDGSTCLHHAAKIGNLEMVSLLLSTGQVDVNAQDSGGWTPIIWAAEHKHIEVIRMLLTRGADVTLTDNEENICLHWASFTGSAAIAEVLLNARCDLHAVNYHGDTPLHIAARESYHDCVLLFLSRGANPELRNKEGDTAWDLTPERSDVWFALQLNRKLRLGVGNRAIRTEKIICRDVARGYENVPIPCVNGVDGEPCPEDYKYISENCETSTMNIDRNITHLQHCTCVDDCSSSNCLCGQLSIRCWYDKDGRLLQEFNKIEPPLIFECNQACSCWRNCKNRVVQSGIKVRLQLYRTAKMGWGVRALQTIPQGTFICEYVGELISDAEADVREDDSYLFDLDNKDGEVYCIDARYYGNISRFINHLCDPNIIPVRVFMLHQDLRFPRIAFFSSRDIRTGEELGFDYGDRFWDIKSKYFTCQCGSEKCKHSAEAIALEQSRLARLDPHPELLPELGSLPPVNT
T1 sequence (Q9H9B1 2-1298 limits assumed): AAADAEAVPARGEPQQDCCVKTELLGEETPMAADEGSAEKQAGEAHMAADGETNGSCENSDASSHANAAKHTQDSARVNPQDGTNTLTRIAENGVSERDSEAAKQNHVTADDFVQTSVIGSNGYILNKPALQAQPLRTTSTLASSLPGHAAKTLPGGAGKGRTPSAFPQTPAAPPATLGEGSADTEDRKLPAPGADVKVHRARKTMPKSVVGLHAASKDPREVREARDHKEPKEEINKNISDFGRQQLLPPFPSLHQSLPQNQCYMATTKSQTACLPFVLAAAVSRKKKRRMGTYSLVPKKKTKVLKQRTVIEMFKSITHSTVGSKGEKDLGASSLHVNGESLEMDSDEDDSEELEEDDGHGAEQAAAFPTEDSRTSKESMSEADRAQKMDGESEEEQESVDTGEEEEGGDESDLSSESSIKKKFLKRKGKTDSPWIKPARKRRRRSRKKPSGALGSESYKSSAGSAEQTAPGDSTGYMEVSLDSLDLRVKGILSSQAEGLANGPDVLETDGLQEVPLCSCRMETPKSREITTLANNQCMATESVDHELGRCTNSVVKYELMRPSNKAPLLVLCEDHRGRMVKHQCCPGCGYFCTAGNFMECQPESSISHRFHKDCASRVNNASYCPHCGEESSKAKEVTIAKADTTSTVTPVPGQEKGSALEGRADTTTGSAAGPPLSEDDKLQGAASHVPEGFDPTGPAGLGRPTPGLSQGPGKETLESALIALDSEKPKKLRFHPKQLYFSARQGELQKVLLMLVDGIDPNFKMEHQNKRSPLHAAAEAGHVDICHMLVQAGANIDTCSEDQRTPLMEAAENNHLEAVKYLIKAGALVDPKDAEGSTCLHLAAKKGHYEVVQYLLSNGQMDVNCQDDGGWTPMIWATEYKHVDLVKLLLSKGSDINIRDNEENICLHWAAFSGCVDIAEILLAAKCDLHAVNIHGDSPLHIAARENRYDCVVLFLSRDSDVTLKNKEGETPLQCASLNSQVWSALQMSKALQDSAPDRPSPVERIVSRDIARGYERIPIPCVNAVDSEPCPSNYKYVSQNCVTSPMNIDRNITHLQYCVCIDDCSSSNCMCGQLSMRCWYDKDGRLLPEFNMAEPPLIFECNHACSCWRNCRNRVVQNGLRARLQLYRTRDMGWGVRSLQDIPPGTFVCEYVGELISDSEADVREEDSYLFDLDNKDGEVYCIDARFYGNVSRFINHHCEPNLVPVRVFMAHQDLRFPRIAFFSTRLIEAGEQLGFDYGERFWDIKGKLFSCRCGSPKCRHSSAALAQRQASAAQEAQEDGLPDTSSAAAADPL

[2] = tested on: 3×MBT domain of L3MBTL1; assay: Triple SILAC pull-down, 3xMBT/3xMBTD355N ratio (cytoplasmic, nuclear and chromatin fractions of 293T cells); format: binding, human; details: SILAC ratio, pull-down 3xMBT vs 3xMBTD355N; for 3xMBT/D355N UNC Heavy: experiment with UNC0638 in heavy SILAC media; for 3xMBT/D355N UNC Light: experiment with UNC0638 in light SILAC media;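 for all read-outs here: proteins quantified with MaxQuant, requiring at least two unique peptides and quantification in both label directions, normalized to the mean of proteins from a digested loading control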

- Relative to UNC0638 UNC Heavy [1]: 0.26 log base 2
- Relative to UNC0638 UNC Light [1]: 0.18 log base 2
- Relative to UNC0638 Average [1]: 0.22 log base 2
B1: LIG3 (protein, UniProt P49916 43-1009, looked up)
DNA ligase 3: LLHGHPLFLRRKPVLSFQGSHLRSRATYLVFLPGLHVGLCSGPCEMAEQRFCVDYAKRGTAGCKKCKEKIVKGVCRIGKVVPNPFSESGGDMKEWYHIKCMFEKLERARATTKKIEDLTELEGWEELEDNEKEQITQHIADLSSKAAGTPKKKAVVQAKLTTTGQVTSPVKGASFVTSTNPRKFSGFSAKPNNSGEAPSSPTPKRSLSSSKCDPRHKDCLLREFRKLCAMVADNPSYNTKTQIIQDFLRKGSAGDGFHGDVYLTVKLLLPGVIKTVYNLNDKQIVKLFSRIFNCNPDDMARDLEQGDVSETIRVFFEQSKSFPPAAKSLLTIQEVDEFLLRLSKLTKEDEQQQALQDIASRCTANDLKCIIRLIKHDLKMNSGAKHVLDALDPNAYEAFKASRNLQDVVERVLHNAQEVEKEPGQRRALSVQASLMTPVQPMLAEACKSVEYAMKKCPNGMFSEIKYDGERVQVHKNGDHFSYFSRSLKPVLPHKVAHFKDYIPQAFPGGHSMILDSEVLLIDNKTGKPLPFGTLGVHKKAAFQDANVCLFVFDCIYFNDVSLMDRPLCERRKFLHDNMVEIPNRIMFSEMKRVTKALDLADMITRVIQEGLEGLVLKDVKGTYEPGKRHWLKVKKDYLNEGAMADTADLVVLGAFYGQGSKGGMMSIFLMGCYDPGSQKWCTVTKCAGGHDDATLARLQNELDMVKISKDPSKIPSWLKVNKIYYPDFIVPDPKKAAVWEITGAEFSKSEAHTADGISIRFPRCTRIRDDKDWKSATNLPQLKELYQLSKEKADFTVVAGDEGSSTTGGSSEENKGPSGSAVSRKAPSKPSASTKKAEGKLSNSNSKDGNMQTAKPSAMKVGEKLATKSSPVKVGEKRKAADETLCQTKVLLDIFTGVRLYLPPSTPDFSRLRRYFVAFDGDLVQEFDMTSATHVLGSRDKNPAAQQVSPEWIWACIRKRRLVAPC
- 3xMBT/D355N UNC Heavy [2]: 2.43 log base 2
- 3xMBT/D355N UNC Light [2]: 2.16 log base 2

- Relative to UNC0638 UNC Heavy [1]: −0.17 log base 2
- Relative to UNC0638 UNC Light [1]: 0.61 log base 2
- Relative to UNC0638 Average [1]: 0.22 log base 2
B2: HNRNPUL1 (protein, UniProt Q9BUJ2 1-856, looked up)
Heterogeneous nuclear …: MDVRRLKVNELREELQRRGLDTRGLKAELAERLQAALEAEEPDDERELDADDEPGRPGHINEEVETEGGSELEGTAQPPPPGLQPHAEPGGYSGPDGHYAMDNITRQNQFYDTQVIKQENESGYERRPLEMEQQQAYRPEMKTEMKQGAPTSFLPPEASQLKPDRQQFQSRKRPYEENRGRGYFEHREDRRGRSPQPPAEEDEDDFDDTLVAIDTYNCDLHFKVARDRSSGYPLTIEGFAYLWSGARASYGVRRGRVCFEMKINEEISVKHLPSTEPDPHVVRIGWSLDSCSTQLGEEPFSYGYGGTGKKSTNSRFENYGDKFAENDVIGCFADFECGNDVELSFTKNGKWMGIAFRIQKEALGGQALYPHVLVKNCAVEFNFGQRAEPYCSVLPGFTFIQHLPLSERIRGTVGPKSKAECEILMMVGLPAAGKTTWAIKHAASNPSKKYNILGTNAIMDKMRVMGLRRQRNYAGRWDVLIQQATQCLNRLIQIAARKKRNYILDQTNVYGSAQRRKMRPFEGFQRKAIVICPTDEDLKDRTIKRTDEEGKDVPDHAVLEMKANFTLPDVGDFLDEVLFIELQREEADKLVRQYNEEGRKAGPPPEKRFDNRGGGGFRGRGGGGGFQRYENRGPPGGNRGGFQNRGGGSGGGGNYRGGFNRSGGGGYSQNRWGNNNRDNNNSNNRGSYNRAPQQQPPPQQPPPPQPPPQQPPPPPSYSPARNPPGASTYNKNSNIPGSSANTSTPTVSSYSPPQPSYSQPPYNQGGYSQGYTAPPPPPPPPPAYNYGSYGGYNPAPYTPPPPPTAQTYPQPSYNQYQQYAQQWNQYYQNQGQWPPYYGNYDYGSYSGNTQGGTSTQ
- 3xMBT/D355N UNC Heavy [2]: 2.97 log base 2
- 3xMBT/D355N UNC Light [2]: 3.07 log base 2

- Relative to UNC0638 UNC Heavy [1]: 0.37 log base 2
- Relative to UNC0638 UNC Light [1]: 0.07 log base 2
- Relative to UNC0638 Average [1]: 0.22 log base 2
B3: ADAR (protein, UniProt P55265 1-1226, looked up)
Double-stranded RNA-specific …: MNPRQGYSLSGYYTHPFQGYEHRQLRYQQPGPGSSPSSFLLKQIEFLKGQLPEAPVIGKQTPSLPPSLPGLRPRFPVLLASSTRGRQVDIRGVPRGVHLRSQGLQRGFQHPSPRGRSLPQRGVDCLSSHFQELSIYQDQEQRILKFLEELGEGKATTAHDLSGKLGTPKKEINRVLYSLAKKGKLQKEAGTPPLWKIAVSTQAWNQHSGVVRPDGHSQGAPNSDPSLEPEDRNSTSVSEDLLEPFIAVSAQAWNQHSGVVRPDSHSQGSPNSDPGLEPEDSNSTSALEDPLEFLDMAEIKEKICDYLFNVSDSSALNLAKNIGLTKARDINAVLIDMERQGDVYRQGTTPPIWHLTDKKRERMQIKRNTNSVPETAPAAIPETKRNAEFLTCNIPTSNASNNMVTTEKVENGQEPVIKLENRQEARPEPARLKPPVHYNGPSKAGYVDFENGQWATDDIPDDLNSIRAAPGEFRAIMEMPSFYSHGLPRCSPYKKLTECQLKNPISGLLEYAQFASQTCEFNMIEQSGPPHEPRFKFQVVINGREFPPAEAGSKKVAKQDAAMKAMTILLEEAKAKDSGKSEESSHYSTEKESEKTAESQTPTPSATSFFSGKSPVTTLLECMHKLGNSCEFRLLSKEGPAHEPKFQYCVAVGAQTFPSVSAPSKKVAKQMAAEEAMKALHGEATNSMASDNQPEGMISESLDNLESMMPNKVRKIGELVRYLNTNPVGGLLEYARSHGFAAEFKLVDQSGPPHEPKFVYQAKVGGRWFPAVCAHSKKQGKQEAADAALRVLIGENEKAERMGFTEVTPVTGASLRRTMLLLSRSPEAQPKTLPLTGSTFHDQIAMLSHRCFNTLTNSFQPSLLGRKILAAIIMKKDSEDMGVVVSLGTGNRCVKGDSLSLKGETVNDCHAEIISRRGFIRFLYSELMKYNSQTAKDSIFEPAKGGEKLQIKKTVSFHLYISTAPCGDGALFDKSCSDRAMESTESRHYPVFENPKQGKLRTKVENGEGTIPVESSDIVPTWDGIRLGERLRTMSCSDKILRWNVLGLQGALLTHFLQPIYLKSVTLGYLFSQGHLTRAICCRVTRDGSAFEDGLRHPFIVNHPKVGRVSIYDSKRQSGKTKETSVNWCLADGYDLEILDGTRGTVDGPRNELSRVSKKNIFLLFKKLCSFRYRRDLLRLSYGEAKKAARDYETAKNYFKKGLKDMGYGNWISKPQEEKNFYLCPV
- 3xMBT/D355N UNC Heavy [2]: 2.00 log base 2
- 3xMBT/D355N UNC Light [2]: 2.47 log base 2

Reference: patent US20140274782A1, “AFFINITY REAGENTS AND METHODS FOR DETECTION, PURIFICATION, AND PROTEOMIC ANALYSIS OF METHYLATED PROTEINS” (The Board of Trustees of the Leland Stanford Junior …, priority 2013, published 2014)
